These results are taken from patent publication US20020012949A1, “Assay systems for leptin-enhancing agents” (priority 1997, published 2002).

In this experiment the target is T1, OB-RY986F (Homo sapiens, UniProt P48357, Y986F).
T1 construct: cells transfected with the full-length OB-R constructs; expressed in transfected cells; host or cells: COS-7
T1 sequence (P48357 22-1165 Y986F): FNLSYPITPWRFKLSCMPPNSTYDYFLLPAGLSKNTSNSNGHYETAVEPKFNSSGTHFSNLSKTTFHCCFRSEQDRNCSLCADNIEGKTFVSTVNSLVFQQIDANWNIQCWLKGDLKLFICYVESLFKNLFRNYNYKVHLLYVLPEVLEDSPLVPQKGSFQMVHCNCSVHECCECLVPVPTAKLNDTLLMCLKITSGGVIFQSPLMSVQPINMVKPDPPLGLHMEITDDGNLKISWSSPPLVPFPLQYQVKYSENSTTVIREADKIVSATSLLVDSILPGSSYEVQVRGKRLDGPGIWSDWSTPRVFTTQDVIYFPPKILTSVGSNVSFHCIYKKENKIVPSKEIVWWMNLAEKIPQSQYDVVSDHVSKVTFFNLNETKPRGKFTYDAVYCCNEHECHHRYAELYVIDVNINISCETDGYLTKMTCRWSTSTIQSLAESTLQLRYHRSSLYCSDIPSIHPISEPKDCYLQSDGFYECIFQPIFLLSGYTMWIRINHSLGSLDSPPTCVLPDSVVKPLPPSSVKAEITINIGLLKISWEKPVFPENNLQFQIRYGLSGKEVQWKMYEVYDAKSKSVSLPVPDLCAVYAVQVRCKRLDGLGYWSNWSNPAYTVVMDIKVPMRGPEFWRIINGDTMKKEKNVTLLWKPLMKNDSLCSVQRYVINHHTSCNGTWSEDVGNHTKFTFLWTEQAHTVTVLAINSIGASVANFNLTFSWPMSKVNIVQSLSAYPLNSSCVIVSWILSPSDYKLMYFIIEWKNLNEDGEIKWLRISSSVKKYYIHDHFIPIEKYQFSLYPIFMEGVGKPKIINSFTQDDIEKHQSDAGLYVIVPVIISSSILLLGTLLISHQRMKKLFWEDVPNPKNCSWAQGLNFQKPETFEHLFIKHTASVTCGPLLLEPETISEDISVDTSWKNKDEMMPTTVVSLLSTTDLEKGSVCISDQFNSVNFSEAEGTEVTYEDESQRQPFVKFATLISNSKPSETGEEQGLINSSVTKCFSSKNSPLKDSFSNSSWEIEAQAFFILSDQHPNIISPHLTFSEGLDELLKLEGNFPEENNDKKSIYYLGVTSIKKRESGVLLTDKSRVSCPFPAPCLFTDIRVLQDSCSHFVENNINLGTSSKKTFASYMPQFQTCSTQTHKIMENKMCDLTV
The experiment can be described thus: Luciferase reporter gene assay (3(G3)-Cy6-LUC), leptin stimulation of COS cells expressing mutant OB-RY986F. It is filed as cell-based. The note with it: mutant receptor OB-RY986F, 100 ng/ml leptin for 24 hours. Here is the method:
The cytoplasmic domain and full-length human OB-R was cloned by PCR using human fetal liver and adipocyte cDNA (Clontech) and cloned into the expression vectors pCMX and pMT21. Chimeric receptors were constructed by fusing the extracellular domain and transmembrane domain of TrkC (amino acids 1 to 458) to the cytoplasmic domain of OB-R (amino acids 865-1165). A triple myc epitope tag was added at the C-terminus of all OB-R constructs (18). Truncation and point mutant constructs were generated by PCR and the sequences of all constructs were verified. Expression constructs were transfected into COS-7 cells using lipofectamine (GIBCO-BRL); 36-48 hours after transfection, cells were starved for either 2 hour,s for chimeric receptors or overnight for full-length receptors prior to stimulation.
Expression constructs (1 μg) for OB-R, OB-RY1141F, OB-RY986F, OB-RY1078, 1079F, and OB-RY986, 1141F were co-transfected with 1 μg of 3(G3)-Cy6-LUC and 0.1 μg of pCMX.LacZ into COS-7 cells (6-well dishes) using lipofectamine. The day after transfection, media was changed to serum-free OptiMEM (GIBCO-BRL) and then treated with 100 ng/ml murine leptin (PeproTech) or human leptin (R&D Systems) for 24 hours. […] Luciferase and β-galactosidase activities were measured in cell lysates (30) and luciferase activity was normalized to β-galactosidase activity to control for transfection differences. […]
Background: A reporter such as luciferase makes a cellular process visible.

Turning to “leptin: the product of the obese gene, secreted by adipocytes; ligand of OB-R”, the “increase in luciferase activity” value was 20 fold.
